From patent US20230391852A1 (US Dept. of Health and Human Services, published 2023)

B1: 1B5 VHH-hFc (Fc fusion)
chain: DVQLVESGGGSVQAGGSLRLSCTGSRYTYSTYCMGWFRQAPGKEEEAVAIINSGGGEPYYGDSVKGRFTISQDRAKNTVYLQMDGLQPDDTAIYYCVAADSHNSRCYLGRSYVNYWGQGTQVTVSS
notes: also called 1B5-hFc; NCI-CoV-1B5 VHH-hFc fusion protein
B2: 2F7 VHH-hFc (Fc fusion)
chain: QVKLEESGGGSVQSGGSLRLSCTVSRDTNTNINRCMGWFRQAPGKGLETVATINRDGTNTYYTDAVKGRFTISQDNVKNTVYLQMNNLTPEDTGTYICNAMGRGSGSRCDNWDPNYWGQGTQVTVSS
notes: also called 2F7-hFc; NCI-CoV-2F7 VHH-hFc fusion protein
B3: 1H6 VHH-hFc (Fc fusion)
chain: AVQLVDSGGGSVQAGGSLNLSCVASGTTLRNGCMAWFRQVPGKEREVVAIIIRATSYTDYADSVKGRFTISQDNAKNTVYLQMKSLTPEDTATYYCAATLYRVNCAKREFDKWGQGTQVTVSS
notes: also called 1H6-hFc; NCI-CoV-1H6 VHH-hFc fusion protein
B4: 7A3 VHH-hFc (Fc fusion)
chain: QVQLVESGGGSVQPGGSLRLSCVVSGYTSSSRYMGWFRQVPGKGLEWVSGIKRDGTNTYYADSVKGRFTISQDNAKNTVYLQMNSLKPEDTAMYYCAAGSWYNQWGYSMDYWGKGTQVTVSS
notes: also called 7A3-hFc; NCI-CoV-7A3 VHH-hFc fusion protein
B5: 8A4 VHH-hFc (Fc fusion)
chain: EVQLVESGGGLVQPGESLRLSCEASGFTFSSVYMSWVRQAPGKGLEWISTIHPAGGSTYYADSMKDRFTISRDNAKNTLYLQMNSLKSEDTALYYCIIEALSGYRGPGTQVTVSS
notes: also called 8A4-hFc; NCI-CoV-8A4 VHH-hFc fusion protein
B6: 8A2 VHH-hFc (Fc fusion)
chain: AVQLVDSGGGSVQAGGSLRLSCAASGYTYSICTMGWYRQAPGEGLEWVSGINADGSNTHYTDSVKGRFTISRDNAKKTLYLQMNSLKPEDTAIYYCAAHGTYDKYAPCGGFAGTYTYWGQGTQVTVSS
notes: also called NCI-CoV-8A2 VHH-hFc

Biological target: SARS-CoV-2 S protein trimer expressed on human A431 cells (SARS-CoV-2, UniProt P0DTC2 14-1273)
Assay: flow cytometry on A431 cells expressing SARS-CoV-2 S (A431-CoV-2-S)

Row | Binder | percent of cells right of the dashed gate line [%]
1 | B1 | 99.1
2 | B2 | 99.3
3 | B3 | 99.5
4 | B4 | 99.5
5 | B5 | 99.4
6 | B6 | 98.7
